# Laboratory results as given in patent US7807384B2, “Low density lipoprotein binding proteins and their use in diagnosing and treating atherosclerosis” (Boston Heart Foundation, Inc., priority 1996, dated 2010).
# B1: recombinant human LBP-2: purified human recombinant LBP-2 used as immunogen with RIBI adjuvant (protein)
# chain: EERVLEKEEEEDDDEDEDEEDDVSEGSEVPESDRPAGAQHHQLNGERGPQSAKERVKEWTPCGPHQGQDEGRGPAPGSGTRQVFSMAAMNKEGGTASVATGPDSPSPVPLPPGKPALPGADGTPFGCPPGRKEKPSDPVEWTVMDVVEYFTEAGFPEQATAFQEQEIDGKSLLLMQRTDVLTGLSIRLGPALKIYEHHIKVLQQGHFEDDDPDGFLG
# B2: LBP-2: rabbit recombinant LBP-2 clone 26 (6-His tag), contains the acidic region (protein)
# chain: PPPPQQPQPPPEGGAARAGGPARPVSLREVVRYLGGSSGAGGRLTRGRVQGLLEEEAAARGRLERTRLGALALPRGDRPGRAPPAASARAARNKRAGEERVLEKEEEEEEEEDDEDDDDDVVSEGSEVPESDRPAGAQHHQLNGGERGPQTAKERAKEWSLCGPHPGQEEGRGPAAGSGTRQVFSMAALSKEGGSASSTTGPDSPSPVPLPPGKPALPGADGTPFGCPAGRKEKPADPVEWTVMDVVEYFTEAGFPEQATAFQEQEIDGKSLLLMQRTDVLTGLSIRLGPALKIYEHHIKVLQQGHFEDDDPEGFLG
# modifications: left off: small tags and cut ends
# notes: rabbit recombinant LBP-2 clone 26 (6-His tag), contains the acidic region
# B3: LBP-3: rabbit recombinant LDL binding protein LBP-3 (6-His tag), SEQ ID NO: 5 (protein, listed as Oryctolagus cuniculus)
# chain: MKNQDKKNGAAKQPNPKSSPGQPEAGAEGAQGRPGRPAPAREAEGASSQAPGRPEGAQAKTAQPGALCDVSEELSRQLEDILSTYCVDNNQGAPGEDGVQGEPPEPEDAEKSRAYVARNGEPEPGTPVVNGEKETSKAEPGTEEIRTSDEVGDRDHRRPQEKKKAKGLGKEITLLMQTLNTLSTPEEKLAALCKKYAELLEEHRNSQKQMKLLQKKQSQLVQEKDHLRGEHSKAILARSKLESLCRELQRHNRSLKEEGVQRAREEEEKRKEVTSHFQMTLNDIQLQMEQHNERNSKLRQENMELAERLKKLIEQYELREEHIDKVFKHKDLQQQLVDAKLQQAQEMLKEAEERHQREKDFLLKEAVESQRMCELMKQQETHLKQQLALYTEKFEEFQNTLSKSSEVFTTFKQEMEKMTKKIKKLEKETTMYRSRWESSNKALLEMAEEKTLRDKELEGLQVKIQRLEKLCRALQTERNDLNKRVQDLSAGGQGPVSDSGPERRPEPATTSKEQGVEGPGAQVPNSPRATDASCCAGAPSTEASGQTGPQEPTTATA
# modifications: 6-His tag
# Tests used:
# [1] = tested on: ballooned deendothelialized rabbit aorta; experiment: Radiolabeled LDL accumulation in ballooned deendothelialized abdominal aorta after active immunization; format: in vivo; details: immunized with RIBI adjuvant; corrected for dosage and percent reendothelialization; 24 hr after 125I-LDL
# Description: Immunity was induced in male New Zealand White rabbits (Hazelton Research Products, Denver, Pa.) as follows: A mixture of purified human recombinant LBP-2 or BHF-1 peptide (1 ml; 1 mg) and RIBI adjuvant (RIBI ImmunoChem Research, Inc., Hamilton, Mont.) was injected subcutaneously at 2-5 sites along the dorsal thoracic and abdominal regions of the rabbits. Blood was collected by venipuncture on days 1 (preimmune bleeding), 35, 63, and 91. Booster injections were administered on days 28 (500 μg; SC), 56 (250 μg; SC), and 84 (125 μg; SC).
# On day 93, the abdominal aorta of immunized and control rabbits was deendothelialized using a Fogarty number 4 embolectomy catheter (Chang et al., Arteriosclerosis and Thrombosis 12:1088-1098 (1992)). Four weeks after ballooning, rabbits received a bolus injection of ^125I-labeled LDL (1 ml; i.v.). […] Blood samples were centrifuged for 30 min at 2000 rpm ([…]) and total activity present in the serum was determined using a Gamma counter. Total TCA precipitable counts were determined by addition of TCA to the serum to a final concentration of 10% followed by incubation for 10 min at 4° C. Serum samples were then centrifuged (2000 rpm; 30 min; […]) and total activity present in the supernate was determined. TCA precipitable counts were calculated by subtraction: total soluble counts minus counts present in the supernate after TCA precipitation. […]
# [2] = molecular target: T1, LDL (Homo sapiens, UniProt P04114); experiment: Affinity coelectrophoresis (ACE) assay of LBP binding to LDL; details: LDL 540 to 14 nM cast in gel
# T1 construct: LDL was prepared from the plasma of normolipemic donors; from tissue; host or cells: blood plasma of normolipemic donors, density ultracentrifugation
# T1 sequence (P04114 28-4563): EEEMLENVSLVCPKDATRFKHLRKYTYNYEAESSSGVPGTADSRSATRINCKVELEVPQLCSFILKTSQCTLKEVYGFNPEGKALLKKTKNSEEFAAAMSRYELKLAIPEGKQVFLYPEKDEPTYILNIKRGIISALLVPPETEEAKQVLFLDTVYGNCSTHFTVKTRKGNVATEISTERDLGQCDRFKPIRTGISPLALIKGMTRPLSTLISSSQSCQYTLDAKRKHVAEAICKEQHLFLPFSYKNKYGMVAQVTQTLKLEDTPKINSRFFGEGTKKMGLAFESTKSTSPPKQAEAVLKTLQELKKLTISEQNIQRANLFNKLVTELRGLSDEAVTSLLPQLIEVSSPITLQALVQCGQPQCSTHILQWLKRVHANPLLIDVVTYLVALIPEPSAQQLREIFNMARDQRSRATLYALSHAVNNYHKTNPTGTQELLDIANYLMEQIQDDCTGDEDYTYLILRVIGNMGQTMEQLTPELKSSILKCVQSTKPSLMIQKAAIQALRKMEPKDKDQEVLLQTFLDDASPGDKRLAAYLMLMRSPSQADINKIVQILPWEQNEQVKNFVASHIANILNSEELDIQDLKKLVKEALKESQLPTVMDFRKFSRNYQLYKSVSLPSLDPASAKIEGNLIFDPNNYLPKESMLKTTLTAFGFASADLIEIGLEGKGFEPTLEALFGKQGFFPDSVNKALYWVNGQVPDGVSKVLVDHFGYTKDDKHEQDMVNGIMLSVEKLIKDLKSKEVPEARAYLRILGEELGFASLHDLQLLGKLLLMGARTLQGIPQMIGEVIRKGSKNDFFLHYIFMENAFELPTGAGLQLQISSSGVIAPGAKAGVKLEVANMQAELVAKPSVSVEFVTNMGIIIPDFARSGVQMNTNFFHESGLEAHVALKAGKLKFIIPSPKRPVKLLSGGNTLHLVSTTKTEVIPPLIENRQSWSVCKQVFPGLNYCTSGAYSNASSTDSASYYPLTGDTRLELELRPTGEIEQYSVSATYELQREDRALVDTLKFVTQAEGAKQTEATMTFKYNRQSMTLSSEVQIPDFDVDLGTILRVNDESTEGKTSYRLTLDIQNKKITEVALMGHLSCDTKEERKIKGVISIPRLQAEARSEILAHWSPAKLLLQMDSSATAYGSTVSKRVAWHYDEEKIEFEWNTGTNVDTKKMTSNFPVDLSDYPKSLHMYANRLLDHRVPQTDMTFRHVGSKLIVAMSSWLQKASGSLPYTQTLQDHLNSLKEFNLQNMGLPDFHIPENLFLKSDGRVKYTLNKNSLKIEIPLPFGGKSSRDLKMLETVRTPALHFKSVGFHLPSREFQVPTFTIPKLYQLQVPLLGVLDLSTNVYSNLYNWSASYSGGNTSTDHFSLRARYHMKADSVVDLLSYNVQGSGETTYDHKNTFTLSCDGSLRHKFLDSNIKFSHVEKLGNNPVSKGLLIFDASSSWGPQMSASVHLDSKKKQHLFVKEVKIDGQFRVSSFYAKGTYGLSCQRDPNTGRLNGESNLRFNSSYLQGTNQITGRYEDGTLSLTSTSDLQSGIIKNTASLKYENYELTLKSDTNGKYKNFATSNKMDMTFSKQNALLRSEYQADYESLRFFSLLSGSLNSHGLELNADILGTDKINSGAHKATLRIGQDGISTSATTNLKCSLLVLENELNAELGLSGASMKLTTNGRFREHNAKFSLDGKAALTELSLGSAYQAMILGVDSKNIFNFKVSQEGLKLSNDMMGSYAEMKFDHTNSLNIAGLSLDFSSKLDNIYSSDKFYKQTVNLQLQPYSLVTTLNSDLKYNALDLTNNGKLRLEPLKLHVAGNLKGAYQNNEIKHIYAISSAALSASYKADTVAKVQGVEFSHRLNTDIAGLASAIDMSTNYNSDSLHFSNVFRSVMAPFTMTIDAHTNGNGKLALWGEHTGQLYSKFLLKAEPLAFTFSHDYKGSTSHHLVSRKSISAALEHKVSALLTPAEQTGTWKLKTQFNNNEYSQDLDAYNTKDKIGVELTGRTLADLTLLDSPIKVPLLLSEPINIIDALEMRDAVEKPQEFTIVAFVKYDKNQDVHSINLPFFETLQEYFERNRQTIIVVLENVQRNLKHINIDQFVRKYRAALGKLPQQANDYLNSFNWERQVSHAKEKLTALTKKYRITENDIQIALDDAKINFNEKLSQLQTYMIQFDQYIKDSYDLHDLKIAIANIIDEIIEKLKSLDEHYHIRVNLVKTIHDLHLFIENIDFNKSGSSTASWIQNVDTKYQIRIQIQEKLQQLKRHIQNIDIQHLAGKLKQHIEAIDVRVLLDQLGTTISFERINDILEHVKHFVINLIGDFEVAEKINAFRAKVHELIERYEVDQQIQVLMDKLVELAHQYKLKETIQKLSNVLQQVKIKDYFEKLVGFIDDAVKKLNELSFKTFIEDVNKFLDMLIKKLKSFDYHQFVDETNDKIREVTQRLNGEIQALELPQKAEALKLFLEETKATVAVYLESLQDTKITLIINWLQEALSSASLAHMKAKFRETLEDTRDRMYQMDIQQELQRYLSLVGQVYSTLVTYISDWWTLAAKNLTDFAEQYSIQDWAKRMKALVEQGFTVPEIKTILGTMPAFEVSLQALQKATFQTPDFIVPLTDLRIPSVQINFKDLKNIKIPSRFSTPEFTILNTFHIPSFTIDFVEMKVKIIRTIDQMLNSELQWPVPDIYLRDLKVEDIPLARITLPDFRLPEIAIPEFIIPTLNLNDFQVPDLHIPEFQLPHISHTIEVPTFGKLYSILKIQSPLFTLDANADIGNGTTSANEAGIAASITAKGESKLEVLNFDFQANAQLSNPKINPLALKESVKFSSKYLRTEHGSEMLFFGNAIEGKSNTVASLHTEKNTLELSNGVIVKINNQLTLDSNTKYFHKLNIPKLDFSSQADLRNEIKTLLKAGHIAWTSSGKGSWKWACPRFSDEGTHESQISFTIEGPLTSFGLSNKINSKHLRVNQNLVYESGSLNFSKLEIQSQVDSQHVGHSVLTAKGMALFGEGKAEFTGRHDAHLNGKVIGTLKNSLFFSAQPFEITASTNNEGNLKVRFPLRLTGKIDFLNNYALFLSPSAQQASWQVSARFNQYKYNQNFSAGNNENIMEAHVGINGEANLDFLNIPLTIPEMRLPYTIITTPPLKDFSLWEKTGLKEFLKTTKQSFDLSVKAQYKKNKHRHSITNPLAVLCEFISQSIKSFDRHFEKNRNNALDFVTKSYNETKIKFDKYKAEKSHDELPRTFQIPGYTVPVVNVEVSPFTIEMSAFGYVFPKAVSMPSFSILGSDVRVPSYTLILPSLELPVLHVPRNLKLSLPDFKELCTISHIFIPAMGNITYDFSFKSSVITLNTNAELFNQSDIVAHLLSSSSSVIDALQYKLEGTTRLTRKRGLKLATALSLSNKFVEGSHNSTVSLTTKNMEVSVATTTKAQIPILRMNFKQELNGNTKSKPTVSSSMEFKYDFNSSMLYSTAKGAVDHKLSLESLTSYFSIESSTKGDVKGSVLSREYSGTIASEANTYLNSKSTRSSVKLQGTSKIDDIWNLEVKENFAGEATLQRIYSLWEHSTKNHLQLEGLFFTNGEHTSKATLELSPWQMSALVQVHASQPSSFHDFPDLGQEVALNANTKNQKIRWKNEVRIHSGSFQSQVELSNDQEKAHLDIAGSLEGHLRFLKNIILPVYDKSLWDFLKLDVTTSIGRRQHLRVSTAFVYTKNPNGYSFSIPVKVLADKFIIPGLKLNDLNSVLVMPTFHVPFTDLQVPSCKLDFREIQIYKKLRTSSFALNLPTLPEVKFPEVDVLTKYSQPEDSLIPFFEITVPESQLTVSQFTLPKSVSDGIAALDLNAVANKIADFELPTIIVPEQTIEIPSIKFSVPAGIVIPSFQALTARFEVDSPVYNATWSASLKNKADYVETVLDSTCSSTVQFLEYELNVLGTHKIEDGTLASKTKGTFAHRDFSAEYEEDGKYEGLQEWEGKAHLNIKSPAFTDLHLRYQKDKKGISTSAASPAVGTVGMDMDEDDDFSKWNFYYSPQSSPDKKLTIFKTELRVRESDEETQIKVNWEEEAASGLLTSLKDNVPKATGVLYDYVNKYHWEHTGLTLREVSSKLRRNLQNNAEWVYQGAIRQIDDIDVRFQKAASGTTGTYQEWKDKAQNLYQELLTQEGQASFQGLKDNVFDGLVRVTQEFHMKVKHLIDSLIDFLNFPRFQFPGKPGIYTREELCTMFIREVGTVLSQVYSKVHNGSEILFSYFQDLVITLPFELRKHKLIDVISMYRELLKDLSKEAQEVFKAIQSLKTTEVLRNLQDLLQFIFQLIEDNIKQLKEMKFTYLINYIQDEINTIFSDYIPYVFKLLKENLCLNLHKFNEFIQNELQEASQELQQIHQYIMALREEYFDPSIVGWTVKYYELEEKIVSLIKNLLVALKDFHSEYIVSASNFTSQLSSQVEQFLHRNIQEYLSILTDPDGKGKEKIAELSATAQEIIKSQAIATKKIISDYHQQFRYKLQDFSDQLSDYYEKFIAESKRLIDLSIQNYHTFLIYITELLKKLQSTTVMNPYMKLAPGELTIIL
# Description: (§1) Analysis of the affinity and specificity of recombinant rabbit LBP-1, LBP-2 or LBP-3 binding to LDL was carried out using the principle of affinity electrophoresis (Lee and Lander, Proc. Natl. Acad. Sci. USA 88:2768-2772 (1991)). Melted agarose (1%; 65° C.) was prepared in 50 mM sodium MOPS, pH 7.0; 125 mM sodium acetate, 0.5% CHAPS. A teflon comb consisting of nine parallel bars (45×4×4 mm/3 mm spacing between bars) was placed onto GelBond film (FMC Bioproducts, Rockland, Me.) fitted to a plexiglass casting tray with the long axis of the bars parallel to the long axis of the casting tray. A teflon strip (66×1×1 mm) was placed on edge with the long axis parallel to the short axis of the casting tray, at a distance of 4 mm from the edge of the teflon comb. Melted agarose (>65° C.) was then poured to achieve a height of approximately 4 mm. […] LDL or HDL samples were prepared in gel buffer (50 mM sodium MOPS, pH 7.0, 125 mM sodium acetate) at twice the desired concentration. Samples were then mixed with an equal volume of melted agarose (in 50 mM MOPS, pH 7.0; 125 mM sodium acetate; 50° C.), pipetted into the appropriate rectangular wells and allowed to gel. The binding affinity and specificity of LBP-1 and LBP-3 was tested using several concentrations of LDL (540 to 14 nM) and HDL (2840177 nM). A constant amount (0.003 nM-0.016 nM) of ^125I-labeled LBP-1, LBP-2 or LBP-3 (suspended in 50 mM sodium MOPS, pH 7.0; 125 mM sodium acetate; 0.5% bromophenol blue; 6% (wt/vol) sucrose) was loaded into the slot. Gels were electrophoresed at 70 v/2 hr/20° C. At the end of the run, the gels were air dried and retardation profiles were visualized by exposure of X-ray films to the gels overnight at −70° C., with intensifying screens.
# Rabbit and human LBP-2 contain a long stretch of acidic amino acids at the amino terminal (rabbit LBP-2 amino acid residues 338 through 365 and human LBP-2 amino acid residues 329 through 354). […]
# [3] = tested on: HDL; experiment: Affinity coelectrophoresis (ACE) assay of LBP binding to HDL; design: species or system human; details: HDL cast in gel
# Description: as §1, with “A constant amount (0.003 nM-0.016 nM) of ^125I-labeled LBP-1, LBP-2 or LBP-3 (suspended in 50 mM sodium MOPS, pH 7.0; 125 mM sodium acetate; 0.5% bromophenol blue; 6% (wt/vol) sucrose) was loaded into the slot. Gels were electrophoresed at 70 v/2 hr/20° C. At the end of the run, the gels were air dried and retardation profiles were visualized by exposure of X-ray films to the gels overnight at −70° C., with intensifying screens.” left out
# [4] = molecular target: T1, LDL; experiment: ACE competition: cold LBP versus radiolabeled LBP binding to LDL; details: fixed cold LDL and radiolabeled LBP, increasing cold recombinant LBP
# Description: Competition studies were carried out using fixed concentrations of cold LDL and radiolabeled LBP-1 and increasing amounts of cold recombinant LBP-1 (6-31 μM). The ACE assay samples and gel were prepared as described herein.
# Competition studies using fixed concentrations of cold LDL and clone 26 derived radiolabeled LBP-2 and increasing concentrations of cold recombinant LBP-2/clone 26 and LBP-a/clone 45 were carried out.
# [5] = Body weight and serum lipids of LBP-immunized apo E knockout mice; format: in vivo, mouse; details: P>0.05
# Description: (§2) Four week old apo E knockout mice (Jackson Laboratories, Bar Harbor, Me.) were ear tagged, randomly assigned to different cages and weighed. Body weights were determined weekly. Animals were allowed to habituate for 1 week. Normal rodent chow was provided ad libitum and animals were maintained in a 12:12 light:dark cycle. The following four groups of mice were treated with either recombinant LBP proteins (40 μg of recombinant protein/mouse) plus RIBI adjuvant or RIBI adjuvant alone (control group).
# Blood samples were analyzed for total cholesterol, HDL cholesterol, and triglyceride concentration with a commercially available total cholesterol and triglycerides assay kits (Sigma; St. Louis Mo.) using an ELISA format. HDL concentration was determined after Apo B containing lipoproteins were precipitated using heparin/MnCl2.
# Data were analyzed using T-tests and Wilcoxons.
# [6] = tested on: apo E knockout mice; experiment: Aortic lesion area (Sudan IV staining) in LBP-immunized apo E knockout mice; format: in vivo, mouse; details: for Effect of immunization on lesions / lesion area: apo E knockout mice; for Lesion Area % Coverage: apo E mice, 26 weeks of age, control 9.40
# Description: (§3) Separate immunization experiments were performed with each of LBP-1, LBP-2, and LBP-J. Immunity was induced by injecting apo E knockout mice with the LBP protein (LBP-1, LBP-2, or LBP-3) together with an RIBI adjuvant (RIBI ImmunoChem Research, Inc., Hamilton, Mont.). Apo E knockout mice (Jackson Laboratories, Bar Harbor, Me.) are hyperlipidemic and thus a model for human atherosclerosis. Apo E knockout mice have high levels of plasma cholesterol and develop naturally-occurring atherosclerotic-like lesions.
# as §2
# (§4) Apo E knockout mice were sacrificed at 26 weeks of age. The mice were anesthetized with methoxyfluorane and exanguinated via cardiac puncture. A midline thoracotomy was performed, a cannula inserted into the right ventricle and perfusate allowed unrestricted flow via an incision into the right atrium. The mice were perfused with saline, followed by 10% phosphate buffered formalin until fasciculations stopped. At this time, the aorta was exposed and adventitial fat removed in situ. The aorta was then removed from the heart down to the iliac bifurcation and placed in 10% phosphate buffered formalin overnight.
# The aorta was stained as follows: after a brief 70% ethanol rinse, it was immersed in a filtered solution of 0.5% (weight/volume) Sudan IV in 35% ethanol/50% acetone with continuous shaking for 10 minutes at room temperature. Unbound dye was removed by incubating the aorta in an 80% ethanol solution with shaking until the background color was clear. The vessel was then rinsed in distilled water, placed in physiological saline and opened longitudinally from the aortic arch down to the iliac bifurcation. The vessel was pinned out and photographed. Photographs were then digitized using an Astra 1200S scanner (UMAX Technologies Inc., Freemont, Calif.) and a commercially available graphics program (Canvas; Deneba Software, Miami Fla.). Total and lesion areas were determined using the signal processing toolbox of MATLAB (The Mathworks Inc., Natick, Mass.). Percent involvement was calculated by dividing lesion area by total area.
# [7] = tested on: apo E knockout mice; experiment: Aortic cholesterol content (cholesterol extraction method) in LBP-immunized apo E knockout mice; format: in vivo, mouse; details: for Arterial Wall Cholesterol: apo E mice
# Description: as §3, §2, §4
# A second analysis was done to measure aortic atherosclerosis by a cholesterol extraction method whereby cholesterol is determined as a unit weight of artery. This method may be more accurate in measuring lesion size than attempting to measure the thickness of many sections. Specifically, the weight of an artery was measured, then the cholesterol was extracted. Aortic cholesterol content was then measured by gas-liquid chromatography. The amount of cholesterol per unit weight of artery was then determined.
# [8] = tested on: LDL receptor negative knockout mice; experiment: Lesions in LBP-immunized LDL receptor negative knockout mice; format: in vivo, mouse; details: P>0.05
Molecule,Accumulation of radiolabeled LDL in ballooned abdominal aorta versus nonimmune-ballooned rabbits [1],Retardation of radiolabeled LBP migration through the gel by LDL [2],Retardation of radiolabeled LBP migration through the gel by LDL ([2]; listed as clone 26),Retardation of radiolabeled LBP migration by HDL [3],Inhibition by cold LBP of radiolabeled LBP binding to LDL [4],Effect of immunization on body weight [5],Effect of immunization on lesions / lesion area [6],Lesion Area % Coverage [6] [%],"Effect of immunization on arterial wall cholesterol content ([7]; apo E knockout mice, once outliers were deleted)","Arterial Wall Cholesterol ([7]; 26 weeks of age, control 6.33) [ug cholesterol/mg aorta]",Arterial Wall Cholesterol ([7]; outliers deleted) [ug cholesterol/mg aorta],Effect of immunization on lesions [8]
B1,lower accumulation,,,,,,,,,,,
B2,,"concentration-dependent, saturable manner","concentration-dependent, saturable, manner",did not retard,inhibited binding,did not have a significant effect,significant effect,6.01,significant effect,3.28,1.83,
B3,,"concentration-dependent, saturable manner",,did not retard,inhibited binding,did not have a significant effect,did not have a significant effect,7.14,,4.48,,did not have a significant effect
